T1: 3FTx-L15 (recombinant long-chain three-finger α-neurotoxin variant) (Ophiophagus hannah (king cobra), long …)
T1 chain: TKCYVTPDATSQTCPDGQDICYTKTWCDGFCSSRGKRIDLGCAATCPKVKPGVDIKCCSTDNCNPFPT


Molecular target: T1, 3FTx-L15 (recombinant long-chain …)

Row | Binder | Kd [nM] | binding result
1 | 95Mat2 (antibody, V domains shown) VH: QVQLVQSGAEVKKPGSSVKVSCKASGGTFSSYAISWVRQAPGQGLEWMGGIIPIFGTANYAQKFQGRVTITADESTSTAYMELSSLRSEDTAVYYCARIPLVWYESGPYESGVFDYWGQGTLVTVSS VL: not shown | 0.1 | 
2 | 95Mat6 (antibody, V domains shown) VH: QVQLVQSGAEVKKPGSSVKVSCKASGGTFSSYAISWVRQAPGQGLEWMGGIIPIFGHANYAQKFQGRVTITADESTSTAYMELSSLRSEDTAVYYCARIPLIWYESGPYESGVFDYWGQGTLVTVSS VL: not shown | 0.103 | 
3 | 95Mat3 (antibody, V domains shown) VH: QVQLVQSGAEVKKPGSSVKVSCKASGGTFSSYAISWVRQAPGQGLEWMGGIIPIFGPANYAQKFQGRVTITADESTSTAYMELSSLRSEDTAVYYCARIPLVWYESGPYESGVFDYWGQGTLVTVSS VL: not shown |  | binds
4 | 95Mat4 (antibody, V domains shown) VH: QVQLVQSGAEVKKPGSSVKVSCKASGGTFSSYAISWVRQAPGQGLEWMGGIIPIFGTANYAQKFQGRVTITADESTSTAYMELSSLRSEDTAVYYCARIPLHWYESGPYESGVFDYWGQGTLVTVSS VL: not shown |  | binds
